Experiments:
[1] = molecular target: SaTBP;SaTFB (TFB1) (Sulfolobus acidocaldarius;Sulfolobus acidocaldarius) (UniProt Q9UWN7); experiment: smFRET; details: smFRET: N70 buffer (Mj) or N65 buffer (Sa), compositions in Table 1 not in the material, Sa EMSA: 10 mM MOPS pH 6.5, 180 mM NaCl, 20 mM KOAc, 11 mM MgCl2, 10% …
[2] = molecular target: SaTBP;SaTFB (TFB1) (Sulfolobus acidocaldarius;Sulfolobus acidocaldarius) (UniProt Q9UWN7); experiment: smFRET titration (confocal); details: smFRET: N70 buffer (Mj) or N65 buffer (Sa), compositions in Table 1 not in the material, Sa EMSA: 10 mM MOPS pH 6.5, 180 mM NaCl, 20 mM KOAc, 11 mM MgCl2, 10% …
[3] = molecular target: T1, MjTBP;MjTFB (Methanocaldococcus jannaschii;Methanocaldococcus jannaschii) (UniProt Q57930+Q58192+Q58192); experiment: smFRET; details: MjTBP + MjTFB; smFRET: N70 buffer (Mj) or N65 buffer (Sa), compositions in Table 1 not in the material; Sa EMSA: 10 mM MOPS pH 6.5, 180 mM NaCl, 20 mM KOAc, 11 mM MgCl2, 10% …
T1 sequence 1: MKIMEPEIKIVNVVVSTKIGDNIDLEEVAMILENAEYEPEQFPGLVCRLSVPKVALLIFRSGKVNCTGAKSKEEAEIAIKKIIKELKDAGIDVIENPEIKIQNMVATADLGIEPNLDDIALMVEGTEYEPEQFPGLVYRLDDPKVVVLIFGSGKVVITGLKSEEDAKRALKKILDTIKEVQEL
T1 sequence 2: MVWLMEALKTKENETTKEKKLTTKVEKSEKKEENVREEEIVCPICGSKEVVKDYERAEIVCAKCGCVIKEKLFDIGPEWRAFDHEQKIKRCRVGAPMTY
T1 sequence 3: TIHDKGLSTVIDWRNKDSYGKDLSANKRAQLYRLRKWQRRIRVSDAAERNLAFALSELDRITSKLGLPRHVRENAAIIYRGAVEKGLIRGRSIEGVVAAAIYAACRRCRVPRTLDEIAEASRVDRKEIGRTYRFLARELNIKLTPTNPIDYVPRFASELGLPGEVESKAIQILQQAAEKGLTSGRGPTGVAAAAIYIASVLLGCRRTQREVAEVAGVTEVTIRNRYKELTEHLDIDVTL

ScTBP = molecular target: T2, ScTBP (Saccharomyces cerevisiae, UniProt P13393 1-240); experiment: smFRET titration (confocal); smFRET: N70 buffer (Mj) or N65 buffer (Sa), compositions in Table 1 not in the material; Sa EMSA: 10 mM MOPS pH 6.5, 180 mM NaCl, 20 mM KOAc, 11 mM MgCl2, 10% glycerol, 5 mM DTT, 1 ug BSA, 100 ug/ml heparin, 65 C 5 min; details: protein: recombinant; label: donor and ATTO647n acceptor
T2 sequence: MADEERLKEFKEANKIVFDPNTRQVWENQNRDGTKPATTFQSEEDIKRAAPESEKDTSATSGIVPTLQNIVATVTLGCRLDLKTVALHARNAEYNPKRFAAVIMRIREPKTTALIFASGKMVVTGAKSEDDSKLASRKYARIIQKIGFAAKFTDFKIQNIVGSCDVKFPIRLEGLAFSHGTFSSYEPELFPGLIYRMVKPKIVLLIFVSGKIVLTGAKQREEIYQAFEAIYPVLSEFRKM

ScTBP;ScTF(II)B = molecular target: T3, ScTBP;ScTF(II)B (Saccharomyces cerevisiae;Saccharomyces …, UniProt P13393;P29055 1-240;1-345, |); experiment: smFRET; TF(II)B stabilizes fully bent state; smFRET: N70 buffer (Mj) or N65 buffer (Sa), compositions in Table 1 not in the material; Sa EMSA: 10 mM MOPS pH 6.5, 180 mM NaCl, 20 mM KOAc, 11 mM MgCl2, 10% glycerol, 5 mM DTT, 1 ug BSA, 100 ug/ml heparin, 65 C 5 min; details: protein: recombinant;recombinant; tags: ;; copies: 1;1; label: donor and ATTO647n acceptor
T3 sequence 1: T2 sequence
T3 sequence 2: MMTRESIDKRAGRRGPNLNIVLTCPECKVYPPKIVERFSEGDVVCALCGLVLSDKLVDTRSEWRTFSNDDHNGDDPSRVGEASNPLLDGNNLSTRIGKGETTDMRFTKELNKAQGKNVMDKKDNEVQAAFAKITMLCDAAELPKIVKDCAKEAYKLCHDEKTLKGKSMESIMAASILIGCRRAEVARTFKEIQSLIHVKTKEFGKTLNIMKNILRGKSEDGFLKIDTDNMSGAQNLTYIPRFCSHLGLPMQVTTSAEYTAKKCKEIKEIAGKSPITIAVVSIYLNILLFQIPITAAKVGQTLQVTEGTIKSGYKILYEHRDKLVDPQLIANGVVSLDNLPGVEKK

MjTBP = molecular target: T4, MjTBP (Methanocaldococcus jannaschii, UniProt Q57930 1-183); experiment: smFRET titration (confocal); smFRET: N70 buffer (Mj) or N65 buffer (Sa), compositions in Table 1 not in the material; Sa EMSA: 10 mM MOPS pH 6.5, 180 mM NaCl, 20 mM KOAc, 11 mM MgCl2, 10% glycerol, 5 mM DTT, 1 ug BSA, 100 ug/ml heparin, 65 C 5 min; details: protein: recombinant; label: Cy3B or ATTO532 donor, ATTO647n acceptor
T4 sequence: T1 sequence 1

Sequence of SaTBP;SaTFB (TFB1) (Sulfolobus acidocaldarius;Sulfolobus acidocaldarius) (Q9UWN7 whole entry, looked up): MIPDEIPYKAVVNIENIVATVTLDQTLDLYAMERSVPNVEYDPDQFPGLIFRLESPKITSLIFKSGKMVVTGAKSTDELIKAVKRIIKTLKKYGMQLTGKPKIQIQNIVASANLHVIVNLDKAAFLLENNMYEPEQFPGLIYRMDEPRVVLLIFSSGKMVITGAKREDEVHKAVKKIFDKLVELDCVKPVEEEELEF

## CGGACCGAAAGCGCGACCATCGCCGGAGATTGGAGTAAAGTTTAAATACTG (double strand) [DNASSV (SSV T6 promoter)]
[1]; 6 uM SaTBP, 5 uM SaTFB
  binding signal (% high FRET population): 92
[2]; SaTBP titrated, SaTFB 3 uM (Fig S7) or 2 uM
  Kd: 930 nM
[2]; SaTFB titrated, 14 uM SaTBP
  Kd: 363 nM

## DNASSV-BRE
[3]
  binding signal (% high FRET population): 62
[1]; SaTBP + SaTFB, main text says no second population
  binding signal (% high FRET population): 29

B1: DNAH2B (H2B promoter) (dsDNA)
DNA 1: CTTCACCTTATTTGCATAAGCGATTCTATATAAAAGCGCCTCGCTCTACCCTGCTCACGCTGTTTTTCCTTTTCGTTGGC
DNA 2: GCCAACGAAAAGGAAAAACAGCGTGAGCAGGGTAGAGCGAGGCGCTTTTATATAGAATCGCTTATGCAAATAAGGTGAAG
ScTBP
  Kd: 4.2 ± 1.2 nM
ScTBP;ScTF(II)B
  binding result: binds

B2: DNASSV (SSV T6 promoter) (dsDNA)
DNA 1: CGGACCGAAAGCGCGACCATCGCCGGAGATTGGAGTAAAGTTTAAATACTG
DNA 2: CAGTATTTAAACTTTACTCCAATCTCCGGCGATGGTCGCGCTTTCGGTCCG
MjTBP
  Kd: 48 ± 6 nM

From PMC4041446, “Eukaryotic and archaeal TBP and TFB/TF(II)B follow different promoter DNA bending pathways”
